T1: FcγRIIb (human, UniProt P31994 43-217, limits assumed)
T1 construct: SPR analyte; also called FcγIIB; CD32
T1 sequence: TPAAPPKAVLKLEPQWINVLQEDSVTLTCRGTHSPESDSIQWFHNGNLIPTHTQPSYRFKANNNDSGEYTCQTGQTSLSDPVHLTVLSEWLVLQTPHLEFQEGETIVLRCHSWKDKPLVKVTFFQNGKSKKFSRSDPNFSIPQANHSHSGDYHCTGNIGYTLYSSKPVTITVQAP

T2: FcγRIIa type R (human, UniProt P12318 36-217)
T2 construct: SPR analyte; also called FcγRIIaR; FcγRIIa(R)
T2 chain: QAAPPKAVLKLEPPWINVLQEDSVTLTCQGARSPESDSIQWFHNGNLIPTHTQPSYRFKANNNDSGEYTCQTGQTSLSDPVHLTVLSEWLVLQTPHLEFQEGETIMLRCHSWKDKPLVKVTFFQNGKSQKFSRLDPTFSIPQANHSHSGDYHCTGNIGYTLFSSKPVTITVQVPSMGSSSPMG

T3: FcγRIIa type H (human, UniProt P12318 36-217)
T3 construct: SPR analyte; also called FcγRIIaH
T3 sequence: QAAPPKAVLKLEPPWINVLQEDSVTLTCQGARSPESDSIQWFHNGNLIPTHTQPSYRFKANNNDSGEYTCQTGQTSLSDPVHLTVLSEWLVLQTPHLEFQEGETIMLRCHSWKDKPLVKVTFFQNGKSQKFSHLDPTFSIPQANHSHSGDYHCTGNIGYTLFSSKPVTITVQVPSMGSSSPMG


Experiments:
FcγRIIb [1] = target: T1, FcγRIIb; test: ratio of SPR KDs; reference IL6R-B3/IL6R-L
Source text: Furthermore, KD(IIaR)/KD(IIb) and KD(IIaH)/KD(IIb) in the table respectively represent the value obtained by dividing the KD value of each variant for FcγRIIaR by the KD value of each variant for FcγRIIb, and the value obtained by dividing the KD value of each variant for FcγRIIaH by the KD value of each variant for FcγRIIb. KD(IIb) of the parent polypeptide/KD(IIb) of the altered polypeptide refers to the value obtained by dividing the KD value of the parent polypeptide for FcγRIIb by the KD value of each variant for FcγRIIb.

FcγRIa = target: T4, FcγRIa (human, UniProt P12314 16-292, limits assumed); test: SPR (Biacore), antibody captured, FcγR analyte
T4 construct: SPR analyte; also called CD64
T4 sequence (P12314 16-292 limits assumed): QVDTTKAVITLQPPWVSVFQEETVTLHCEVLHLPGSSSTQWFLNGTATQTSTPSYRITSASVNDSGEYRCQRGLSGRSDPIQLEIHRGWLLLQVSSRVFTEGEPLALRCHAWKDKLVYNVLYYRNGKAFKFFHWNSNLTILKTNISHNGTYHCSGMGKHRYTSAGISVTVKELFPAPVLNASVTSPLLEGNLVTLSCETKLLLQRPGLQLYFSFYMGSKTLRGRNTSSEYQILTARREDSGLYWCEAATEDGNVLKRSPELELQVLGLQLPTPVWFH

FcγRIIa type R = target: T2, FcγRIIa type R; test: SPR (Biacore), antibody captured, FcγR analyte
FcγRIIa type H = target: T3, FcγRIIa type H; test: SPR (Biacore), antibody captured, FcγR analyte
FcγRIIIa type V = target: T5, FcγRIIIa type V (human, UniProt P08637 17-208, limits assumed); test: SPR (Biacore), antibody captured, FcγR analyte
T5 construct: SPR analyte; allotype V158 was used here; also called FcγRIIIaV; FcγRIIIa(V)
T5 sequence (P08637 other isoform, or with tags, fused parts or gaps limits assumed): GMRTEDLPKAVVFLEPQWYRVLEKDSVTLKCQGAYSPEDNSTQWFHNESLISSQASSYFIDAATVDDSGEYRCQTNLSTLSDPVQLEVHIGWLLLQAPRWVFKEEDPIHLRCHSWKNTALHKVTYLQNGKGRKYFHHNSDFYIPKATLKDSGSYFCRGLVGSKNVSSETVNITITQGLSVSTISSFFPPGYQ

FcγRIIb [2] = target: T1, FcγRIIb; test: SPR (Biacore), antibody captured, FcγR analyte

KD(IIb) of the parent polypeptide/KD(IIb) of altered polypeptide (FcγRIIb [1])	Kd (FcγRIa)	Kd (FcγRIIa type R)	Kd (FcγRIIa type H)	Kd (FcγRIIIa type V)	Kd (FcγRIIb [2])	Binder
7.2	0.0014 µM	5 µM	13 µM	50 µM	–	IL6R-2B253/IL6R-L (antibody, human IgG1) heavy: QVQLQESGPGLVKPSETLSLTCAVSGHSISHDHAWSWVRQPPGEGLEWIGFISYSGITNYNPSLQGRVTISRDNSKNTLYLQMNSLRAEDTAVYYCARSLARTTAMDYWGEGTLVTVSSASTKGPSVFPLAPSSKSTSGGTAALGCLVKDYFPEPVTVSWNSGALTSGVHTFPAVLQSSGLYSLSSVVTVPSSSLGTQTYICNVNHKPSNTKVDKKVEPKSCDKTHTCPPCPAPDLLGGDSVFLFPPKPKDTLMISRTPEVTCVVVDVSHEDPEVKFNWYVDGVEVHNAKTKPREEQYNSTYRVVSVLTVLHQDWLNGKEYKCKMSNKALPAPIEKTISKAKGQPREPQVYTLPPSRDELTKNQVSLTCLVKGFYPSDIAVEWESNGQPENNYKTTPPVLDSDGSFFLYSKLTVDKSRWQQGNVFSCSVMHEALHNHYTQESLSLSP light: DIQMTQSPSSLSASVGDRVTITCRASQDISSYLNWYQQKPGKAPKLLIYYTSRLHSGVPSRFSGSGSGTDFTFTISSLQPEDIATYYCQQGNTLPYTFGQGTKVEIK
6.1	0.007 µM	7.2 µM	24 µM	67 µM	0.5 µM	IL6R-BP084/IL6R-L (antibody, human IgG1) heavy: QVQLQESGPGLVKPSETLSLTCAVSGHSISHDHAWSWVRQPPGEGLEWIGFISYSGITNYNPSLQGRVTISRDNSKNTLYLQMNSLRAEDTAVYYCARSLARTTAMDYWGEGTLVTVSSASTKGPSVFPLAPSSKSTSGGTAALGCLVKDYFPEPVTVSWNSGALTSGVHTFPAVLQSSGLYSLSSVVTVPSSSLGTQTYICNVNHKPSNTKVDKKVEPKSCDKTHTCPPCPAPELLGGDSVFLFPPKPKDTLMISRTPEVTCVVVDVSHEDPEVKFNWYVDGVEVHNAKTKPREEQYNSTYRVVSVLTVLHQDWLNGKEYKCKMSNKALPKPIEKTISKAKGQPREPQVYTLPPSRDELTKNQVSLTCLVKGFYPSDIAVEWESNGQPENNYKTTPPVLDSDGSFFLYSKLTVDKSRWQQGNVFSCSVMHEALHNHYTQESLSLSP light: DIQMTQSPSSLSASVGDRVTITCRASQDISSYLNWYQQKPGKAPKLLIYYTSRLHSGVPSRFSGSGSGTDFTFTISSLQPEDIATYYCQQGNTLPYTFGQGTKVEIK
–	0.01 µM	2.6 µM	28 µM	58 µM	–	IL6R-BP182/IL6R-L (antibody, human IgG1) heavy: QVQLQESGPGLVKPSETLSLTCAVSGHSISHDHAWSWVRQPPGEGLEWIGFISYSGITNYNPSLQGRVTISRDNSKNTLYLQMNSLRAEDTAVYYCARSLARTTAMDYWGEGTLVTVSSASTKGPSVFPLAPSSKSTSGGTAALGCLVKDYFPEPVTVSWNSGALTSGVHTFPAVLQSSGLYSLSSVVTVPSSSLGTQTYICNVNHKPSNTKVDKKVEPKSCDKTHTCPPCPAPDLLGGDSVFLFPPKPKDTLMISRTPEVTCVVVDVSHEDGEVKFNWYVDGVEVHNAKTKPREEQDNSTYRVVSVLTVLHQDWLNGKEYKCKVSNKALPKPIEKTISKAKGQPREPQVYTLPPSRDELTKNQVSLTCLVKGFYPSDIAVEWESNGQPENNYKTTPPVLDSDGSFFLYSKLTVDKSRWQQGNVFSCSVMHEALHNHYTQESLSLSP light: DIQMTQSPSSLSASVGDRVTITCRASQDISSYLNWYQQKPGKAPKLLIYYTSRLHSGVPSRFSGSGSGTDFTFTISSLQPEDIATYYCQQGNTLPYTFGQGTKVEIK
5.6	0.13 µM	–	26 µM	62 µM	0.56 µM	IL6R-BP133/IL6R-L (antibody, human IgG1) heavy: QVQLQESGPGLVKPSETLSLTCAVSGHSISHDHAWSWVRQPPGEGLEWIGFISYSGITNYNPSLQGRVTISRDNSKNTLYLQMNSLRAEDTAVYYCARSLARTTAMDYWGEGTLVTVSSASTKGPSVFPLAPSSKSTSGGTAALGCLVKDYFPEPVTVSWNSGALTSGVHTFPAVLQSSGLYSLSSVVTVPSSSLGTQTYICNVNHKPSNTKVDKKVEPKSCDKTHTCPPCPAPDYLGGDSVFLFPPKPKDTLMISRTPEVTCVVVDVSHEDPEVKFNWYVDGVEVHNAKTKPREEQYNSTYRVVSVLTVLHQDWLNGKEYKCKVSNKALPKPIEKTISKAKGQPREPQVYTLPPSRDELTKNQVSLTCLVKGFYPSDIAVEWESNGQPENNYKTTPPVLDSDGSFFLYSKLTVDKSRWQQGNVFSCSVMHEALHNHYTQESLSLSP light: DIQMTQSPSSLSASVGDRVTITCRASQDISSYLNWYQQKPGKAPKLLIYYTSRLHSGVPSRFSGSGSGTDFTFTISSLQPEDIATYYCQQGNTLPYTFGQGTKVEIK
3.9	0.038 µM	–	44 µM	66 µM	0.79 µM	IL6R-BP083/IL6R-L (antibody, human IgG1) heavy: QVQLQESGPGLVKPSETLSLTCAVSGHSISHDHAWSWVRQPPGEGLEWIGFISYSGITNYNPSLQGRVTISRDNSKNTLYLQMNSLRAEDTAVYYCARSLARTTAMDYWGEGTLVTVSSASTKGPSVFPLAPSSKSTSGGTAALGCLVKDYFPEPVTVSWNSGALTSGVHTFPAVLQSSGLYSLSSVVTVPSSSLGTQTYICNVNHKPSNTKVDKKVEPKSCDKTHTCPPCPAPELLGGDSVFLFPPKPKDTLMISRTPEVTCVVVDVSHEDPEVKFNWYVDGVEVHNAKTKPREEQDNSTYRVVSVLTVLHQDWLNGKEYKCKVSNKALPKPIEKTISKAKGQPREPQVYTLPPSRDELTKNQVSLTCLVKGFYPSDIAVEWESNGQPENNYKTTPPVLDSDGSFFLYSKLTVDKSRWQQGNVFSCSVMHEALHNHYTQESLSLSP light: DIQMTQSPSSLSASVGDRVTITCRASQDISSYLNWYQQKPGKAPKLLIYYTSRLHSGVPSRFSGSGSGTDFTFTISSLQPEDIATYYCQQGNTLPYTFGQGTKVEIK
13.7	0.074 µM	2.1 µM	18 µM	–	0.23 µM	IL6R-BP146/IL6R-L (antibody, human IgG1) heavy: QVQLQESGPGLVKPSETLSLTCAVSGHSISHDHAWSWVRQPPGEGLEWIGFISYSGITNYNPSLQGRVTISRDNSKNTLYLQMNSLRAEDTAVYYCARSLARTTAMDYWGEGTLVTVSSASTKGPSVFPLAPSSKSTSGGTAALGCLVKDYFPEPVTVSWNSGALTSGVHTFPAVLQSSGLYSLSSVVTVPSSSLGTQTYICNVNHKPSNTKVDKKVEPKSCDKTHTCPPCPAPEYLGDDSVFLFPPKPKDTLMISRTPEVTCVVVDVSHEDPEVKFNWYVDGVEVHNAKTKPREEQYNSTYRVVSVLTVLHQDWLNGKEYKCKVSNAALPAPIEKTISKAKGQPREPQVYTLPPSRDELTKNQVSLTCLVKGFYPSDIAVEWESNGQPENNYKTTPPVLDSDGSFFLYSKLTVDKSRWQQGNVFSCSVMHEALHNHYTQESLSLSP light: DIQMTQSPSSLSASVGDRVTITCRASQDISSYLNWYQQKPGKAPKLLIYYTSRLHSGVPSRFSGSGSGTDFTFTISSLQPEDIATYYCQQGNTLPYTFGQGTKVEIK
–	0.14 µM	0.89 µM	5.1 µM	33 µM	0.066 µM	IL6R-BP147/IL6R-L (antibody, human IgG1) heavy: QVQLQESGPGLVKPSETLSLTCAVSGHSISHDHAWSWVRQPPGEGLEWIGFISYSGITNYNPSLQGRVTISRDNSKNTLYLQMNSLRAEDTAVYYCARSLARTTAMDYWGEGTLVTVSSASTKGPSVFPLAPSSKSTSGGTAALGCLVKDYFPEPVTVSWNSGALTSGVHTFPAVLQSSGLYSLSSVVTVPSSSLGTQTYICNVNHKPSNTKVDKKVEPKSCDKTHTCPPCPAPEYLGDDSVFLFPPKPKDTLMISRTPEVTCVVVDVSHEDPEVKFNWYVDGVEVHNAKTKPREEQYNSTYRVVSVLTVLHQDWLNGKEYKCKVSNAALPKPIEKTISKAKGQPREPQVYTLPPSRDELTKNQVSLTCLVKGFYPSDIAVEWESNGQPENNYKTTPPVLDSDGSFFLYSKLTVDKSRWQQGNVFSCSVMHEALHNHYTQESLSLSP light: DIQMTQSPSSLSASVGDRVTITCRASQDISSYLNWYQQKPGKAPKLLIYYTSRLHSGVPSRFSGSGSGTDFTFTISSLQPEDIATYYCQQGNTLPYTFGQGTKVEIK
3	0.009 µM	–	33 µM	73 µM	1 µM	IL6R-2B261/IL6R-L (antibody, human IgG1) heavy: QVQLQESGPGLVKPSETLSLTCAVSGHSISHDHAWSWVRQPPGEGLEWIGFISYSGITNYNPSLQGRVTISRDNSKNTLYLQMNSLRAEDTAVYYCARSLARTTAMDYWGEGTLVTVSSASTKGPSVFPLAPSSKSTSGGTAALGCLVKDYFPEPVTVSWNSGALTSGVHTFPAVLQSSGLYSLSSVVTVPSSSLGTQTYICNVNHKPSNTKVDKKVEPKSCDKTHTCPPCPAPDLLGGDSVFLFPPKPKDTLMISRTPEVTCVVVDVSHEDPEVKFNWYVDGVEVHNAKTKPREEQDNSTYRVVSVLTVLHQDWLNGKEYKCKVSNKALPAPIEKTISKAKGQPREPQVYTLPPSRDELTKNQVSLTCLVKGFYPSDIAVEWESNGQPENNYKTTPPVLDSDGSFFLYSKLTVDKSRWQQGNVFSCSVMHEALHNHYTQESLSLSP light: DIQMTQSPSSLSASVGDRVTITCRASQDISSYLNWYQQKPGKAPKLLIYYTSRLHSGVPSRFSGSGSGTDFTFTISSLQPEDIATYYCQQGNTLPYTFGQGTKVEIK

From patent publication US20200199241A1 (Chugai, published 2020)
